Data reported in patent US20250136952A1 (WISCONSIN ALUMNI RESEARCH FOUNDATION, published 2025).

Biological target: the molecule itself
Test: X-ray crystal structure of GmPDH1-NADP+-citrate, 1.69 A
Protocol: Crystals of GmPDH1 M219T/N222D formed in 16% (w/v) PEG 8000, 40 mM potassium phosphate dibasic, and 20% (v/v) glycerol. All crystals were flash-frozen in liquid nitrogen with mother liquor supplemented with 25% glycerol as a cryoprotectant.
The GmPDH1 structure was solved by single-wavelength anomalous dispersion (SAD) phasing. Diffraction data collected at beamline 19ID of the Argonne National Laboratory Advanced Photon Source were indexed, integrated, and scaled using HKL3000⁴⁸. SHELX⁴⁹ was used to determine initial SeMet positions and to estimate initial phases from the peak wavelength data set. SeMet positions and parameters were refined in MLPHARE⁵⁰. Solvent flattening was performed with DM⁵¹, and ARP/wARP⁵² was used to build an initial model. Iterative rounds of manual model building and refinement were performed with COOT⁵³ and PHENIX⁵⁴, respectively. The resulting model was used for molecular replacement into the higher resolution native data set using PHASER⁵⁵. Iterative rounds of manual model building and refinement, which included translation-libration-screen (TLS) models, used COOT and PHENIX, respectively. The native GmPDH1 structure was used for molecular replacement to solve the GmPDH1 N222D and GmPDH1 M219T/N222D structures. Each mutant structure was built and refined using the same method as the wild-type enzyme. […]

B1: Glycine max (soybean) prephenate dehydrogenase GmPDH1, wild type (enzyme)
chain: MSTSSSSQSLKIGIVGFGNFGQFLAKTMIKQGHTLTATSRSDYSELCLQMGIHFFRDVSAFLTADIDVIVLCTSILSLSEVVGSMPLTSLKRPTLFVDVLSVKEHPRELLLRELPEDSDILCTHPMFGPQTAKNGWTDHTFMYDKVRIRDEVICSNFIQIFATEGCKMVQMSCEEHDRAAAKSQFITHTIGRTLGEMDIQSTPIDTKGFETLVKLKETMMRNSFDLYSGLFVYNRFARQELENLEHALHKVKETLMIQRTNGEQGHKRTES
notes: also called Gm18g02650; 18g02650; not shown: N-terminal 6x-His tag from the pET28a vector
binding result: binds
